# System: Escherichia coli TOP10
# Test: shrunken log2 fold change of peptide-encoding DNA abundance (4.5 h post-induction vs induction); higher = less antimicrobial activity (less host growth inhibition)
# Conditions: time post-induction: 4.5 h; library: site-saturation at positions 5, 18, 19, 20
# 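Note: peptides expressed intracellularly from a pBAD plasmid library in pooled LB shake-flask culture, induced with 0.3% L-arabinose, DNA abundance read by NGS, three biological replicates, DESeq2 with apeglm shrinkage.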
row,Sequence,shrunken log2 fold change
1,RRIRSRPPRLPRPRPRPADKPRP,-0.254
2,RRIRSRPPRLPRPRPRPADMPRP,0.0296
3,RRIRSRPPRLPRPRPRPAEGPRP,0.29
4,RRIRSRPPRLPRPRPRPAEKPRP,0.0409
5,RRIRSRPPRLPRPRPRPAFAPRP,0.414
6,RRIRSRPPRLPRPRPRPAFWPRP,0.651
7,RRIRSRPPRLPRPRPRPAHRPRP,-0.0259
8,RRIRSRPPRLPRPRPRPAHWPRP,0.416
9,RRIRSRPPRLPRPRPRPAIQPRP,-0.21
10,RRIRSRPPRLPRPRPRPAITPRP,-0.0725
11,RRIRSRPPRLPRPRPRPAKLPRP,0.195
12,RRIRSRPPRLPRPRPRPALNPRP,0.161
13,RRIRSRPPRLPRPRPRPAMEPRP,-0.0044
14,RRIRSRPPRLPRPRPRPAMPPRP,0.206
15,RRIRSRPPRLPRPRPRPANDPRP,0.0254
16,RRIRSRPPRLPRPRPRPANHPRP,-0.606
17,RRIRSRPPRLPRPRPRPANSPRP,-0.564
18,RRIRSRPPRLPRPRPRPAPDPRP,0.369
19,RRIRSRPPRLPRPRPRPAPYPRP,0.265
20,RRIRSRPPRLPRPRPRPASAPRP,0.243
21,RRIRSRPPRLPRPRPRPATAPRP,0.322
22,RRIRSRPPRLPRPRPRPATEPRP,0.121
23,RRIRSRPPRLPRPRPRPATGPRP,0.156
24,RRIRSRPPRLPRPRPRPATWPRP,-0.136
25,RRIRSRPPRLPRPRPRPAWWPRP,0.23

row,Sequence,shrunken log2 fold change
1,RRIRSRPPRLPRPRPRPCAIPRP,-0.475
2,RRIRSRPPRLPRPRPRPCCRPRP,-0.0822
3,RRIRSRPPRLPRPRPRPCDLPRP,-0.144
4,RRIRSRPPRLPRPRPRPCEMPRP,0.0253
5,RRIRSRPPRLPRPRPRPCGHPRP,0.0213
6,RRIRSRPPRLPRPRPRPCIPPRP,-0.417
7,RRIRSRPPRLPRPRPRPCKHPRP,-0.216
8,RRIRSRPPRLPRPRPRPCKIPRP,-0.177
9,RRIRSRPPRLPRPRPRPCKNPRP,-0.283
10,RRIRSRPPRLPRPRPRPCPCPRP,-0.138
11,RRIRSRPPRLPRPRPRPCQCPRP,0.017
12,RRIRSRPPRLPRPRPRPCQMPRP,0.0312
13,RRIRSRPPRLPRPRPRPCQTPRP,0.131
14,RRIRSRPPRLPRPRPRPCSPPRP,0.149
15,RRIRSRPPRLPRPRPRPCTVPRP,-0.253
16,RRIRSRPPRLPRPRPRPCWEPRP,0.311
17,RRIRSRPPRLPRPRPRPCWKPRP,-0.169
18,RRIRSRPPRLPRPRPRPDAYPRP,0.101
19,RRIRSRPPRLPRPRPRPDCEPRP,0.259
20,RRIRSRPPRLPRPRPRPDFHPRP,-0.751
21,RRIRSRPPRLPRPRPRPDHDPRP,-0.357
22,RRIRSRPPRLPRPRPRPDHSPRP,-0.096
23,RRIRSRPPRLPRPRPRPDHVPRP,-0.0207
24,RRIRSRPPRLPRPRPRPDKRPRP,-0.198
25,RRIRSRPPRLPRPRPRPDMIPRP,-0.00286

row,Sequence,shrunken log2 fold change
1,RRIRSRPPRLPRPRPRPDPRPRP,0.215
2,RRIRSRPPRLPRPRPRPDQPPRP,0.0272
3,RRIRSRPPRLPRPRPRPDQVPRP,-0.0236
4,RRIRSRPPRLPRPRPRPDQYPRP,-2.18
5,RRIRSRPPRLPRPRPRPDRYPRP,-0.172
6,RRIRSRPPRLPRPRPRPDSVPRP,0.107
7,RRIRSRPPRLPRPRPRPDTGPRP,-0.00127
8,RRIRSRPPRLPRPRPRPDTVPRP,-0.323
9,RRIRSRPPRLPRPRPRPDVAPRP,0.407
10,RRIRSRPPRLPRPRPRPDVGPRP,0.102
11,RRIRSRPPRLPRPRPRPDWKPRP,-0.0322
12,RRIRSRPPRLPRPRPRPDWNPRP,-0.298
13,RRIRSRPPRLPRPRPRPECVPRP,0.673
14,RRIRSRPPRLPRPRPRPEDDPRP,0.744
15,RRIRSRPPRLPRPRPRPEDEPRP,-0.0488
16,RRIRSRPPRLPRPRPRPEELPRP,0.176
17,RRIRSRPPRLPRPRPRPEEMPRP,-0.0122
18,RRIRSRPPRLPRPRPRPEFTPRP,0.171
19,RRIRSRPPRLPRPRPRPEIRPRP,-0.0706
20,RRIRSRPPRLPRPRPRPEITPRP,-0.13
21,RRIRSRPPRLPRPRPRPEKLPRP,-0.264
22,RRIRSRPPRLPRPRPRPELYPRP,-0.00809
23,RRIRSRPPRLPRPRPRPEMFPRP,-0.0055
24,RRIRSRPPRLPRPRPRPEQMPRP,-0.0112
25,RRIRSRPPRLPRPRPRPEQQPRP,0.0303

row,Sequence,shrunken log2 fold change
1,RRIRSRPPRLPRPRPRPEQYPRP,-0.256
2,RRIRSRPPRLPRPRPRPEREPRP,-0.0693
3,RRIRSRPPRLPRPRPRPERFPRP,0.196
4,RRIRSRPPRLPRPRPRPERVPRP,0.21
5,RRIRSRPPRLPRPRPRPEVKPRP,0.287
6,RRIRSRPPRLPRPRPRPEVSPRP,0.214
7,RRIRSRPPRLPRPRPRPFAHPRP,0.0573
8,RRIRSRPPRLPRPRPRPFARPRP,-0.172
9,RRIRSRPPRLPRPRPRPFCRPRP,-0.0968
10,RRIRSRPPRLPRPRPRPFCTPRP,-0.375
11,RRIRSRPPRLPRPRPRPFDIPRP,-0.639
12,RRIRSRPPRLPRPRPRPFDWPRP,-0.0461
13,RRIRSRPPRLPRPRPRPFEPPRP,-0.268
14,RRIRSRPPRLPRPRPRPFFCPRP,-0.11
15,RRIRSRPPRLPRPRPRPFFHPRP,-0.498
16,RRIRSRPPRLPRPRPRPFGGPRP,-0.0941
17,RRIRSRPPRLPRPRPRPFGIPRP,-0.172
18,RRIRSRPPRLPRPRPRPFHAPRP,0.042
19,RRIRSRPPRLPRPRPRPFINPRP,-0.639
20,RRIRSRPPRLPRPRPRPFIRPRP,-0.412
21,RRIRSRPPRLPRPRPRPFKCPRP,-0.226
22,RRIRSRPPRLPRPRPRPFKRPRP,-0.013
23,RRIRSRPPRLPRPRPRPFLFPRP,-0.329
24,RRIRSRPPRLPRPRPRPFMRPRP,0.0496
25,RRIRSRPPRLPRPRPRPFNFPRP,-0.112

row,Sequence,shrunken log2 fold change
1,RRIRSRPPRLPRPRPRPFNHPRP,-1.19
2,RRIRSRPPRLPRPRPRPFPHPRP,-0.16
3,RRIRSRPPRLPRPRPRPFPMPRP,-0.264
4,RRIRSRPPRLPRPRPRPFPTPRP,-0.101
5,RRIRSRPPRLPRPRPRPFQPPRP,-0.133
6,RRIRSRPPRLPRPRPRPFVHPRP,-0.291
7,RRIRSRPPRLPRPRPRPFVSPRP,-0.481
8,RRIRSRPPRLPRPRPRPFWAPRP,-0.00411
9,RRIRSRPPRLPRPRPRPFYAPRP,-0.236
10,RRIRSRPPRLPRPRPRPGCFPRP,0.225
11,RRIRSRPPRLPRPRPRPGCSPRP,-0.115
12,RRIRSRPPRLPRPRPRPGDIPRP,-0.198
13,RRIRSRPPRLPRPRPRPGEFPRP,-0.181
14,RRIRSRPPRLPRPRPRPGERPRP,0.637
15,RRIRSRPPRLPRPRPRPGFFPRP,0.176
16,RRIRSRPPRLPRPRPRPGGFPRP,0.245
17,RRIRSRPPRLPRPRPRPGIKPRP,-0.0207
18,RRIRSRPPRLPRPRPRPGKFPRP,-0.111
19,RRIRSRPPRLPRPRPRPGKGPRP,-0.0961
20,RRIRSRPPRLPRPRPRPGNEPRP,-0.183
21,RRIRSRPPRLPRPRPRPGSWPRP,0.605
22,RRIRSRPPRLPRPRPRPGTCPRP,0.148
23,RRIRSRPPRLPRPRPRPGTFPRP,0.0493
24,RRIRSRPPRLPRPRPRPGTLPRP,-0.571
25,RRIRSRPPRLPRPRPRPGTMPRP,-0.315

row,Sequence,shrunken log2 fold change
1,RRIRSRPPRLPRPRPRPGTNPRP,-0.188
2,RRIRSRPPRLPRPRPRPGVRPRP,-0.0323
3,RRIRSRPPRLPRPRPRPGWAPRP,0.706
4,RRIRSRPPRLPRPRPRPGWYPRP,-0.118
5,RRIRSRPPRLPRPRPRPGYIPRP,-0.0571
6,RRIRSRPPRLPRPRPRPGYMPRP,-0.148
7,RRIRSRPPRLPRPRPRPHAWPRP,0.149
8,RRIRSRPPRLPRPRPRPHCDPRP,-0.38
9,RRIRSRPPRLPRPRPRPHCVPRP,-0.0724
10,RRIRSRPPRLPRPRPRPHDHPRP,-0.23
11,RRIRSRPPRLPRPRPRPHEQPRP,0.128
12,RRIRSRPPRLPRPRPRPHESPRP,-0.15
13,RRIRSRPPRLPRPRPRPHEWPRP,0.147
14,RRIRSRPPRLPRPRPRPHFYPRP,0.166
15,RRIRSRPPRLPRPRPRPHGGPRP,0.103
16,RRIRSRPPRLPRPRPRPHGLPRP,-0.0195
17,RRIRSRPPRLPRPRPRPHGQPRP,0.24
18,RRIRSRPPRLPRPRPRPHHTPRP,-0.625
19,RRIRSRPPRLPRPRPRPHIFPRP,-0.197
20,RRIRSRPPRLPRPRPRPHISPRP,-0.035
21,RRIRSRPPRLPRPRPRPHIYPRP,-0.607
22,RRIRSRPPRLPRPRPRPHKMPRP,-0.156
23,RRIRSRPPRLPRPRPRPHKWPRP,-0.296
24,RRIRSRPPRLPRPRPRPHLAPRP,-0.0617
25,RRIRSRPPRLPRPRPRPHMNPRP,-0.548
